{
  "source": "paper PMC3672086",
  "about": "“TWEAK-Independent Fn14 Self-Association and NF-κB Activation Is Mediated by the C-Terminal Region of the Fn14 Cytoplasmic Domain” (PLoS ONE, 2013)",
  "proteins": {"B1": {"name": "myc epitope-tagged Fn14 extracellular domain deletion (Fn14-ΔEC) (receptor, human, UniProt Q9NP84 28-129, looked up)", "chain": "EQAPGAAAPPAPFRLLWPILGGALSLTFVLGLLSGFLVWRRCRRREKFTTPIEETGGEGCPAVALIQ", "notes": "human Fn14 splice variant (exon 2 skipped), 94-aa precursor missing amino acids 33-67 of the extracellular domain; mature myc-tagged protein 77 aa; Cloned from U87-luc cell mRNA; natural splice variant mRNA, endogenous protein not detected by the authors; also called ΔEC mutant; short Fn14 isoform; source: HEK293 or HEK293/NF-κB-luc/Fn14-HA cells, transiently transfected (pcDNA6/Fn14-ΔEC), on …"}},
  "target": "the molecule itself",
  "test": "cross-linking; cell surface proteins of transfected HEK293/NF-κB-luc/Fn14-HA cells cross-linked with 1 mM BS3 in PBS, 20 min, room temperature; lysis in HNTG buffer, reducing SDS-PAGE, anti-myc Western blot",
  "data": [
    {"protein": "B1", "values": [
      {"measurement": "stoichiometry N", "value": 2}
    ]}
  ]
}
